Measurements reported in patent publication US9933424 (SEOUL NATIONAL UNIVERSITY HOSPITAL, dated 2018).

Experiments:
[1] = molecular target: T1, adenylyl cyclase-associated protein 1 (CAP1), human, of THP-1 cells (human, UniProt Q01518 2-475); test: western blot of cell lysates probed with mFc-human resistin as primary antibody, anti-mFc-HRP detection
T1 construct: Endogenous full-length protein in THP-1 lysates or on THP-1 cells; also called human resistin receptor; 55 kDa protein

[2] = molecular target: T1, adenylyl cyclase-associated protein 1 …; test: conclusion of Example 4 (western blot, immunofluorescence, flow cytometry on THP-1 cells)

T1 sequence (Q01518 2-475 limits assumed): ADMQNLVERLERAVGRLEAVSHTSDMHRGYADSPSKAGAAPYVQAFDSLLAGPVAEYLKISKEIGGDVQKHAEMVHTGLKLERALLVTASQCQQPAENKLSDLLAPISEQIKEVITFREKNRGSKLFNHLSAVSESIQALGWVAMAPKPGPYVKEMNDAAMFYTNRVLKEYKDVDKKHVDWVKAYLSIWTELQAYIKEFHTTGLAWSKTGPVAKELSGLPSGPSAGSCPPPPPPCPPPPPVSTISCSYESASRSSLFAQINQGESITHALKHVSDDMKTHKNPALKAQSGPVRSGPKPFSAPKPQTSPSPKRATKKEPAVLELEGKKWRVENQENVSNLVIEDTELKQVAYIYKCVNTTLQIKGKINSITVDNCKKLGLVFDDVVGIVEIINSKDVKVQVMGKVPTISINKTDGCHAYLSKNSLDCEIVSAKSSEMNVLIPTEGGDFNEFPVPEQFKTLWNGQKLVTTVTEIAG

B1: mFc-human resistin fusion protein (mouse Fc region of immunoglobulin fused to the N-terminus of human resistin) (Fc fusion, UniProt Q9HD89 19-108, looked up)
chain: KTLCSMEEAINERIQEVAGSLIFRAISSIGLECQSVTSRGDLATCPRGFAVTGCTCGSACGSWDVRAETTCHCQCAGMDWTGARCCRVQP
notes: Expressed in HEK293-F cells from pcDNA3.1 and purified on mFc-specific beads; also called mFc-human resistin protein; mFc human resistin recombinant protein; not shown: mouse immunoglobulin Fc region (mFc); prot
[1]
  binding result: binds

B2: recombinant human resistin protein (ligand, UniProt Q9HD89 19-108, looked up)
chain: KTLCSMEEAINERIQEVAGSLIFRAISSIGLECQSVTSRGDLATCPRGFAVTGCTCGSACGSWDVRAETTCHCQCAGMDWTGARCCRVQP
notes: also called rhResistin; human recombinant resistin
[2]
  binding result: binds
